One test has as its target T1, mouse galectin-7 (mouse, UniProt O54974 1-136, limits assumed).
T1 construct: also called mouse GAL-7
T1 sequence (looked up): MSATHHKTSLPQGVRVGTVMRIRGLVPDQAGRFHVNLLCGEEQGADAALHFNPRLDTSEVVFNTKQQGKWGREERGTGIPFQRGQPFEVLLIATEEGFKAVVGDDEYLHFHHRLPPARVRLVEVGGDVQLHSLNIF
Kind of test: microscale thermophoresis, Red-NHS labeled G1N1 (2 nM). The method, then: (§1) FIG. 9A: Red-NHS labeled human GAL-1 (5 nM) incubated with G1N1 or alpha-lactose (a-lactose). […] In the same experiment, no binding was detected at 10 μM for human GAL-7, mouse GAL-7, human GAL-8 and human GAL-13. All experiments were performed in 20 mM Tris-HCl 150 mM NaCl and 0.1% F127. Binding affinities (Kd values) were determined from the fitted curves (three parameter dose-response curve) obtained from data of at least 3 independent experiments. For each value, 95% confidence intervals (Cl) are indicated.

In test [1] the target is T2, recombinant human galectin-1 (human, UniProt P09382 2-135).
T2 construct: Recombinant, made in E. coli BL21(DE3) from pET-22b(+); also called hGAL-1; GAL-1
Kind of test: microscale thermophoresis, Red-NHS labeled G1N1 (2 nM), human galectin-1 titrated; value in brackets is the 95% CI. The method, then: FIG. […] In the same experiment, no binding was detected at 10 μM for human GAL-7, mouse GAL-7, human GAL-8 and human GAL-13. All experiments were performed in 20 mM Tris-HCl 150 mM NaCl and 0.1% F127. Binding affinities (Kd values) were determined from the fitted curves (three parameter dose-response curve) obtained from data of at least 3 independent experiments. For each value, 95% confidence intervals (Cl) are indicated.

Another test concerns the target T3, human galectin-7 (human, UniProt P47929 1-136).
T3 construct: Recombinant, made in E. coli; also called human GAL-7; Gal-7
Kind of test: ELISA, human galectin-7 immobilized at 1 µM, anti-His-tag detection [left panel (1 µM]. The method, then:
(§2) Briefly, human galectins were immobilized at 1 and 5 μM for 16 h at 4° C. After a blocking step with PBS containing 10% (v/v) BSA (blocking buffer), increasing concentrations of G1N1 were added to each well and incubated for 1 h at room T° C. […] The colorimetric assay was carried out with 3,3′,5,5′-tetramethylbenzidine (Sigma-Aldrich, ON, Canada) according to the manufacturers recommendations.
(§3) ELISA assays. Recombinant human galectins were immobilized in 96-well plates at the indicated concentrations for 16 h at 4° C. After a blocking step with PBS containing 10% (v/v) bovine serum albumin (BSA) (blocking buffer), increasing concentrations of G1N1 were added to each well and incubated for 1 h at room temperature. […] The colorimetric assay was carried out with TMB (Sigma-Aldrich, MO, USA) according to the manufacturer's recommendations.

Test [2] deals with T4, recombinant mouse galectin-1 (mouse, UniProt P16045 2-135).
T4 construct: also called mGAL-1
Kind of test: microscale thermophoresis, Red-NHS labeled G1N1 (2 nM), mouse galectin-1 titrated; value in brackets is the 95% CI.

Test [3] concerns the target T2, recombinant human galectin-1. Kind of test: microscale thermophoresis (MST), Red-NHS labeled human GAL-1 (5 nM) with G1N1 or alpha-lactose. The method, then: as §1
Test [4] has the same target. Description: microscale thermophoresis, Red-NHS labeled human GAL-1 (5 nM), G1N1 titrated; value in brackets is the 95% CI. The method, then:
as §1

A further test concerns the target T5, human galectin-13 (human, UniProt Q9UHV8 1-139).
T5 construct: Recombinant, made in E. coli; also called human GAL-13; Gal-13
T5 sequence: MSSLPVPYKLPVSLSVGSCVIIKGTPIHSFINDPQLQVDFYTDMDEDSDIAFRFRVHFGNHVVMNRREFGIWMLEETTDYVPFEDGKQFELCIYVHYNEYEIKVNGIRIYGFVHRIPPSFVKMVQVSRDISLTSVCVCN
Kind of test: ELISA, human galectin-13 immobilized at 1 µM, anti-His-tag detection [left panel (1 µM]. The method, then:
as §2, §3

Another test addresses T6, human galectin-2 (human, UniProt P05162 1-132).
T6 construct: Recombinant, made in E. coli; also called Gal-2
T6 sequence: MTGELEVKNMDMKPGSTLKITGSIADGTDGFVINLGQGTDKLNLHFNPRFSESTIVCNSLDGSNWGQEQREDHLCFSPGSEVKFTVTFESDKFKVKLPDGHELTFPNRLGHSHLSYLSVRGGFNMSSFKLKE
Kind of test: ELISA, human galectin-2 immobilized at 1 µM, anti-His-tag detection [left panel (1 µM]. The method, then: as §2, §3

In test [5] the target is T7, GAL-1-Biotin (biotinylated human GAL-1) (Homo sapiens, UniProt P09382).
T7 construct: made in house; host or cells: E. coli BL21 (DE3), pET-22b(+)
Kind of test: non-adsorbed phage ELISA of VHH clones on GAL-1-Biotin. The settings on record: HRP-conjugated anti-M13 antibody, TMB substrate; 282 clones tested. The test is classed as binding. The method, then: Generation and production of single chain camelid antibodies. Galectin-specific single chain (VHH) camelid antibodies were obtained following in vitro screening of a non-immune humanized synthetic single domain antibodies (hsd2Ab) library that contains more than 3×10^9 clones expressed at the surface of M13 phage [Moutel et al., 2016]. The panning was carried out against immobilized recombinant human galectin-1 devoid of carbohydrate in its glycan binding site (GBS). Prior to the phage display selection, galectin-1-biotin and GST-Biotin were bound to streptavidin magnetic beads (Dynabeads® M-280 Streptavidin, Life Technologies) with a 50 nM final concentration of biotinylated protein for the first round and 10 nM final concentration of biotinylated protein for the second and third rounds. […] Following three-rounds of phage display, clones were picked randomly and analyzed by non-adsorbed phage ELISA using HRP-conjugated anti-M13 antibody (GE Healthcare) and a colorimetric substrate (TMB, tetramethylbenzidine, Thermo Fischer).
Following an initial pre-screen round of phage display carried out with GST-biotin to deplete the library from unspecific binders, unbound VHHs were incubated with GAL-1-Biotin beads. […] A total of 282 VHHs were then picked and analyzed by ELISA for galectin-1 binders.

Test [6] addresses T8, recombinant human GAL-1 (rhGAL-1) (Homo sapiens, UniProt P09382).
T8 construct: made in house; host or cells: E. coli BL21 (DE3), pET-22b(+)
Kind of test: inhibition of galectin-1-induced apoptosis of Jurkat T cells (annexin V/propidium iodide flow cytometry). The settings on record: rhGAL-1 2.25 μM, 4 h at 37° C., increasing concentrations of nanobody. Format: cell-based. The method, then: Briefly, Jurkat T cells were incubated with recombinant human GAL-1 (rhGAL-1; 2.25 μM) for 4h at 37° C. in presence of increasing concentrations of G1N1 and G1N2. Apoptosis was measured by flow cytometry using conventional annexin V/propidium iodide staining. Results represent data recorded on 5000 cells. Errors bars represent standard deviation.
Jurkat T cells were incubated with increasing concentrations of G1N1 pre-incubated with rhGAL-1 (2.25 μM) for 4 h at 37° C., after which apoptosis was measured by flow cytometry using Annexin V/propidium iodide staining. 5000 events were recorded. Errors bars represent standard deviation.
Apoptosis of human T cells. In vitro apoptosis assays were carried out using the standard in vitro human Jurkat T cell model system, fluorescein isothiocyanate (FITC)-labeled annexin V (Biolegend, San Diego, CA, USA) and propidium iodide (PI). Briefly, recombinant galectin-1 was pre-incubated for 1 h at 4° C. in serum free RPMI 1640 medium before addition to Jurkat cells. The mixture was incubated at 37° C. for 4 h. Cells were then washed once in PBS and once in binding buffer (0.01 M HEPES, 0.14 M NaCl, 2.5 mM CaCl2, pH 7.4). For staining, cells were incubated for 15 min with FITC-labeled annexin V in the dark at room temperature. The PI (0.25 μg/mL) stain was added to cells just before analysis by flow cytometry.

T2 sequence (P09382 2-135 limits assumed): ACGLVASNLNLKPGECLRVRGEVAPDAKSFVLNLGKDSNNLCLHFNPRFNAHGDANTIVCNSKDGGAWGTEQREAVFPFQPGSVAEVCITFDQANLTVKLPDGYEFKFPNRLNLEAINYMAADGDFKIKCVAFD
T8 sequence (P09382 whole entry): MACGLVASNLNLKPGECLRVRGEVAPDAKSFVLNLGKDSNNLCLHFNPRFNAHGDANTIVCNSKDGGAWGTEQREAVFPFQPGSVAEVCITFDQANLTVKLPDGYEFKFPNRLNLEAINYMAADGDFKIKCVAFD
T7 sequence (P09382 whole entry): as above
T3 sequence (P47929 whole entry): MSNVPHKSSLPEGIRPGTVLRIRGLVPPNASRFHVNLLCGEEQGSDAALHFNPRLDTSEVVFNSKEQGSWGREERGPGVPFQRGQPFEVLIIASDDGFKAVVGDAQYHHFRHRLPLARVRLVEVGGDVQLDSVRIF
T4 sequence (P16045 2-135 limits assumed): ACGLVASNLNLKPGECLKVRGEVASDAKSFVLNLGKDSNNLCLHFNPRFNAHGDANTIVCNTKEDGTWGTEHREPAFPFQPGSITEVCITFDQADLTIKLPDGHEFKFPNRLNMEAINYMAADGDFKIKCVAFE

B1: G1N1 nanobody (galectin-1-specific VHH, clone D06) (VHH)
VHH: EVQLQASGGGFVQPGGSLRLSCAASGSTFSEDAMGWFRQAPGKEREFVSAISGFANPHSYYADSVKGRFTISRDNSKNTVYLQMNSLRAEDTATYYCAASHKKTRAPAATFETYWGQGTQVTVSS
notes: From a synthetic humanized nanobody library (hsd2Ab); For apoptosis, MST and ELISA it was made in E. coli from pHEN2 with 6xHis and cMyc tags; also called GAL-1-specific Nb #1; lead VHH clone G1N1; not shown: 6xHis and cMyc tags from vector pHEN2
B1: the binding result in the test with mouse galectin-7, with human galectin-7, with human galectin-13 and with human galectin-2 was “no binding (tested: 10 µM)” in each case. Further, the dissociation constant (Kd) was found to be 750 nM in test [1], 24.6 nM in test [2] and 87 nM in test [4]. Further, in test [3], the “fold higher affinity than lactose for galectin-1” value was ~200 fold.

B2: G1N2: galectin-1-specific single-domain VHH nanobody, SEQ ID NO:9; weak-binding second clone from phage display (protein)
VHH: MAEVQLQASGGGFVQPGGSLRLSCAASGSTYFHTAMGWFRQAPGKEREFVSAISGFANPHRYYASSVKGRFTISRDNSKNTVYLQMNSLRAEDTATYYCANLISTNRGWLMGYWCQGTQVTVSS
modifications: G1N2 VHH
Take B2: in [5], the “binding in phage ELISA in the presence of GAL-1-Biotin” value is recorded as “weak binding”. Besides, the “inhibition of galectin-1-induced apoptosis of Jurkat T cells” value in [6] is recorded as “not”.

The record behind these values is patent publication US20240228627A1, “GALECTIN-1-SPECIFIC MONOVALENT ANTIBODIES AND USES THEREOF” (INSTITUT NATIONAL DE LA RECHERCHE SCIENTIFIQUE, priority 2021, published 2024).
